Data: article PMC12802916
Where a chain is given by its changes, count along the chain named.

T1: ST2/IL-33R Fc chimera (Mus musculus, UniProt P14719 27-332)
T1 sequence: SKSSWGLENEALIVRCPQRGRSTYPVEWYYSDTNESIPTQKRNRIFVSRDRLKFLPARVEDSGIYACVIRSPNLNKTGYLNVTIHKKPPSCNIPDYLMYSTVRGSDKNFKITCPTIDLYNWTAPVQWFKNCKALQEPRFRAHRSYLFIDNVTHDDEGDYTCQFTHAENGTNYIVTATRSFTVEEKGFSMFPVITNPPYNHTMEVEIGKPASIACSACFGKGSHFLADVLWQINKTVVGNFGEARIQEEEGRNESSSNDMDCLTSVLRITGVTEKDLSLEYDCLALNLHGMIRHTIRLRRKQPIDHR

B1: B RaptScore round6 2 (ssRNA)
RNA: GGGAGAACUUCGACUUGUAACAAGCUGUUUUGGAACAGCGCAUAACGAACCGUGCAGAGAUCCUC
B2: B RaptScore round7 3 (ssRNA)
RNA: B1 RNA with A49U, C50U
B3: B RaptScore round7 1 (ssRNA)
RNA: B1 RNA with A49U
B4: B RaptScore round6 3 (ssRNA)
RNA: B1 RNA with C50A

Target: T1, ST2/IL-33R Fc chimera
Assay: SPR; SPR (Biacore T200): 295 mM NaCl, 5.4 mM KCl, 0.8 mM MgCl2, 18 mM CaCl2 (printed CaClCl2), 0.05% Tween 20, 20 mM Tris-HCl pH 7.6; temperature not stated. A/C: po

Binder	binding signal
B1	-4.91 % of B Round7 3
B2	-0.82 % of B Round7 3
B3	-4.12 % of B Round7 3
B4	-3.28 % of B Round7 3
